Assay results published in patent publication US20100143379A1 (priority 2005, published 2010).

Key:
JNK-1/2 = experiment: MAP kinase phosphorylation in differentiating K562 progenitors (Western blot); type: cell-based, human; details: vs differentiation medium alone; did not reach statistical significance (96 hrs, p<0.06)
Description: MIF addition markedly affected these differentiation-associated, MAP kinase responses.
Western Blot Analysis. Immunoblotting with antibodies directed against phospho-ERK1/2, total ERK1/2, phospho-JNK1/2, total JNK1/2, phospho-p38, and total p38 was performed according to the manufacturer's instructions (New England Biolabs, Beverly, Mass.). The secondary antibody was an anti-rabbit IgG conjugated to horseradish peroxidase and detection was by chemiluminescence according to the manufacture's instructions (Amersham Pharmacia Biotech, Piscataway, N.J.). For quantitation of signal intensity of phospho-specific kinase results, western blots were scanned using a UMAX, PowerLook IIII scanner and the images were analyzed using UN-SCAN-IT gel Automated Digitizing system software version 5.1 (Silk Scientific Corporation, USA). The ratio between phosphorylated to the total MAP kinase was determined and expressed as a fold-change for each lane (mean±S.E.M for three blots from independent cell cultures). The p values were calculated for each of the time course comparisons (4, 16, 96 hrs) of three different experiments (Student T-test, two-tailed).

ERK-1/2 = ERK-1/2 phosphorylation in COS-7/M6 stable transformants (Western blot); type: cell-based; details: 100 ng/ml
CD74 = CD74 phospho-serine sandwich ELISA; type: cell-based; details: MIF 100 ng/ml, 10 mins; COS-7/CD74+CD44 cell line and wild-type MEFs
Description: (§1) FIGS. 12A-12E show the phosphoserine content of CD74 and CD44 measured by ELISA. […] The ELISA values represent the mean±SD of triplicate measurements. Experiments were replicated twice. *P<0.02 versus corresponding control (Student's T test, two-tailed). […] Cell lysates were prepared and probed for PKA and PKC using phospho-specific, and total anti-PKA and anti-PKC antibodies.
The observation that the phosphoserine content of CD74 increased only in cells that expressed CD74 and full-length CD44 is consistent with the notion that the MIF-mediated phosphorylation of CD74 is dependent on the activity of the CD44 intracytoplasmic domain.
(§2) The serine phosphorylation of CD74 and CD44 was quantified by specific sandwich ELISA (Perez et al. (2003). Nature Immunol 4:1083-92). […] After several washes (0.5% Tween-20 in PBS), 0.2 μg/ml anti-phospho-serine antibody (Hypromatrix) conjugated with horseradish peroxidase was added, and immunoreactivity measured by the TMB reagent (DakoCytomation) and the data analyzed with SpectraMax Plus (Molecular Devices).
(§3) Cell lysates were collected and analyzed by immunoblots using a pair of anti-phospho-PICA and anti-(total)-PKA antibodies, a pair of anti-phospho-PKC (all from Cell Signaling) and anti-(total)-PKC (Santa Cruz) antibodies, or a pair of anti-phospho-p56^lck (Cell Signaling) and anti-(total) p56^lck (sc-433, Santa Cruz) antibodies.

CD44 = CD44 phospho-serine sandwich ELISA; type: cell-based; details: MIF 100 ng/ml, 10 mins
Description: as §1
Ser325 is constitutively phosphorylated in resting cells, but undergoes de-phosphorylation in response to PKC activating stimuli such as phorbol esters. […] The effect of MIF-stimulation CD44 phosphorylation was analyzed in the COS-7 and MEF cell lines by sandwich ELISA using an anti-CD44 capture antibody to quantify CD44 phospho-serine residues (Perez et al. (2003). Nature Immunol. 4:1083-92). […]
as §2, with “Devices). […]” for “Devices).”

PKA = experiment: Western analysis of kinase phosphorylation in COS-7/CD74+CD44 cells; type: cell-based; details: 100 ng/ml for 10 minutes
Description: as §1, §3

p56^lck = experiment: Tyrosine kinase phosphorylation in COS-7/M6 transformants and MEFs (immunoblot); type: cell-based; details: only in the cells expressing both CD74 and full-length CD44
Description: Cells then were harvested and lysed in buffer containing 50 mM Hepes, pH7.5, 150 mM NaCl, 1.5 mM MgCl2, 1 mM EGTA, 1% Glycerol and 1% Triton X-100, and freshly added phosphatase and proteinase inhibitors (1 mM orthovanandate, 10 mM NaF, 10 μg/ml leupeptin, 25 μg/ml aprotinin and 50 μg/ml PMSF). For immunoblotting, 15-20 μg of cell lysate proteins were separated by 10% SDS-PAGE and transferred to PVDF Immobilon-P transfer membranes (Millipore). The blots were developed with specific primary antibodies that included a pair of anti-phospho-ERK-1/2 (sc-7383, Santa Cruz) and anti-(total) ERK-1/2 (sc-94, Santa Cruz) antibodies, a pair of anti-phospho-p56^lck (Cell Signaling) and anti-(total) p56^lck (sc-433, Santa Cruz) antibodies, or a pair of anti-phospho-Src and anti-(total) Src antibodies (Cell Signaling). The secondary antibodies included anti-mouse IgG or anti-rabbit IgG conjugated with horseradish peroxidase (Cell Signaling). The ECL detection reagents (Amersham) were used to visualize bands.

[1] = system: COS-7/CD74+CD44 cell line; experiment: In vitro apoptosis, caspase-3 activity, COS-7 cell lines; type: cell-based; details: MIF 100 ng/ml; apoptosis inducers SNP and camptothecin, 24 hrs
Description: Apoptosis Studies. […] Cell lysates were collected, and caspase-3 activity analyzed using a colorimetric assay kit (R&D Systems). Cytoplasmic p53 content was analyzed as described previously (Mitchell et al. (2002). Proc Natl Acad Sci USA 99:345-350) by immunoblotting of mouse cytosolic fractions using a pair of anti-phospho-p53 (Ser15) (R&D Systems) and total anti-p53 antibodies (Cell Signaling); and for COS-7 cells, the anti-p53 (Ser15) and total anti-p53 antibodies (Cell Signaling). In vivo apoptosis studies followed the procedures of (Mitchell et al. (2002). Proc Natl Acad Sci USA 99:345-350), and were conducted after i.p injection of 15 mg/kg lipopolysaccharide (E. coli 0111:B4; Sigma). Mice were sacrificed 24 hrs after priming and the peritoneal macrophage cells collected and immediately analyzed for apoptosis by an ELISA that detects cytoplasmic oligonucleosomes (Roche Diagnostics). Primary macrophages also were immunostained by Alexa 488-conjugated, Annexin V (Invitrogen), and apoptotic cells enumerated by fluorescence microscopy.

B1: MIF: macrophage migration inhibitory factor; recombinant mouse or human MIF purified essentially free of endotoxin (protein)
chain: PMFIVNTNVPRASVPDGFLSELTQQLAQATGKPPQYIAVHVVPDQLMAFGGSSEPCALCSLHSIGKIGGAQNRSYSKLLCGLLAERLRISPDRVYINYYDMNAANVGWNNSTFA
JNK-1/2 phosphorylation (JNK-1/2): appeared to upregulate JNK-1/2 phosphorylation | time of decay of ERK-1/2 phosphorylation (ERK-1/2): 30 min | ERK-1/2 phosphorylation (ERK-1/2; cells transfected with CD74, CD44, CD74+CD44 or CD74+CD44^Δ67): induced ERK-1/2 phosphorylation only in those cells expressing both CD74 and full-length CD44 | phosphorylation of CD74 (phospho-serine content) (CD74): increased significantly | net content of CD44 serine phosphorylation (CD44): did not change | phosphorylation of PKA (PKA): MIF-dependent phosphorylation of PKA | p56^lck phosphorylation (p56^lck): phosphorylated by MIF treatment | protection from apoptosis [1]: significant protective effect
